Assay results reported in US20190040136A1 (AGENCY FOR SCIENCE TECHNOLOGY AND RESEARCH, published 2019).

Assays:
[1] = molecular target: T1, human LAG-3 coupled to phycoerythrin (human, UniProt P18627 23-450, limits assumed, coupled to phycoerythrin); assay: blocking assay, flow cytometry: phycoerythrin-coupled human LAG-3 pre-incubated with Fab, then binding to MHC class II on Daudi cells
T1 construct: also called Labelled LAG-3
T1 sequence (looked up): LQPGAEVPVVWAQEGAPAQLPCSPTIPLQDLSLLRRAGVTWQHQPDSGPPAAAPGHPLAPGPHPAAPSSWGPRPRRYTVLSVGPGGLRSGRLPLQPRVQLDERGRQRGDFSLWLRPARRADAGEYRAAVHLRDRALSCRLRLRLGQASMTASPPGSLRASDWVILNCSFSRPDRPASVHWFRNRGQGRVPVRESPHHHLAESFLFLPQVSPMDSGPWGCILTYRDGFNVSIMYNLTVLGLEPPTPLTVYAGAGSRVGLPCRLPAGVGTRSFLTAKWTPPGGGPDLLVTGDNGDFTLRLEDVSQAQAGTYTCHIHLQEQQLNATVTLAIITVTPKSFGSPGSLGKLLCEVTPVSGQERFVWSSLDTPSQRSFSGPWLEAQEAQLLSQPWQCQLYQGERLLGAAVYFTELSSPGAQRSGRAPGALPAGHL

[2] = molecular target: T2, mouse LAG-3 coupled to human Fc (mouse, UniProt Q61790 24-442, limits assumed); assay: ELISA, plate coated with mouse LAG-3-Fc, crude periplasmic Fab extract, anti-human Fab-HRP, absorbance 450-670 nm
T2 construct: also called murine LAG-3; Fc-coupled murine LAG-3; not shown: human Fc
T2 sequence (looked up): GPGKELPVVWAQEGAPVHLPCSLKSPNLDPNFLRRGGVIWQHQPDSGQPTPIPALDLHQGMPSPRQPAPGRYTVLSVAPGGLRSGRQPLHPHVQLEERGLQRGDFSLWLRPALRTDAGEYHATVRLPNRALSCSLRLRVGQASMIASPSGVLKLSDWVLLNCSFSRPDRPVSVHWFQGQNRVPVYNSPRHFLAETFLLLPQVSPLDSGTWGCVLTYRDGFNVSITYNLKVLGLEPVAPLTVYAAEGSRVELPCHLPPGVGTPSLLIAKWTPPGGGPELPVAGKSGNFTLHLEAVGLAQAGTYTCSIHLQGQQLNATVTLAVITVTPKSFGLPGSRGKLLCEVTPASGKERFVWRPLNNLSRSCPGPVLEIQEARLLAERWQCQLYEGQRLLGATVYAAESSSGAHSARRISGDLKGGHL
Experimental: After extensive washes in PBS Tween-20, crude periplasmic extracts from the induction were transferred into the ELISA wells in the presence of 7% milk in PBS. After 90 minutes at room temperature under agitation and extensive washes, a goat anti-human Fab antibody coupled to HRP was added. One hour la ter, plates were washed and TMB substrate was added. The reaction was stopped with 1M HCl and optical density was measured at 450 nm with a reference at 670 nm. Antibodies giving an absorbance >0.1 were selected as positive. A first clonality screening was performed by DNA fingerprinting; clonality was then confirmed by sequencing.

[3] = molecular target: T3, biotinylated recombinant human LAG-3 (human, UniProt P18627 23-450, limits assumed, biotinylated); assay: ELISA, antibody coated on the plate, biotinylated recombinant human LAG-3 titrated (x axis, nM), streptavidin detection, absorbance 450-570 nm
T3 construct: also called soluble recombinant human LAG-3 protein
T3 sequence (looked up): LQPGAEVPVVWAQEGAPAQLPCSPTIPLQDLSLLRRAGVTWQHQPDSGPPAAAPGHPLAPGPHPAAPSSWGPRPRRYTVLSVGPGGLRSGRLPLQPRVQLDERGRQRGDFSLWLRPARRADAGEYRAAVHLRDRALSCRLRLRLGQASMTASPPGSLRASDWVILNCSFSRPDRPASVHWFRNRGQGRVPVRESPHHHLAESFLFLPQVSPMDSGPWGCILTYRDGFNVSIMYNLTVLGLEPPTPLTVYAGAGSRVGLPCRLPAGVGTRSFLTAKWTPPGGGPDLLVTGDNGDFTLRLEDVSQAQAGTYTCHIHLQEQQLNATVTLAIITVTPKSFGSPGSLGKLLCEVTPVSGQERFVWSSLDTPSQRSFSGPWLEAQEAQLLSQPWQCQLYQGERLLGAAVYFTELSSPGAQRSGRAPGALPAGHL

[4] = molecular target: T1, human LAG-3 coupled to phycoerythrin; assay: flow cytometry; inhibition of binding of PE-coupled human LAG-3 to MHC class II on Daudi cells
Experimental: Daudi cells were plated in 96-well plates and fixed/permeabilised in Fix/Perm buffer in the presence of anti-CD16/CD32 antibody. Premixes were added onto the Daudi cells and incubated for 30 minutes at 4° C. The cells were then washed three times in Perm/Wash buffer, resuspended in PBS and analysed by flow cytometry.

[5] = molecular target: T4, Human LAG-3 coupled to human Fc (human, UniProt P18627 23-450, limits assumed); assay: SPR (ProteOn XPR 36), human LAG-3-Fc immobilised, A6 Fab as analyte at five concentrations (L1A1-L1A5)
T4 construct: also called LAG-3-Fc; human LAG-3-Fc; not shown: human Fc
T4 sequence (looked up): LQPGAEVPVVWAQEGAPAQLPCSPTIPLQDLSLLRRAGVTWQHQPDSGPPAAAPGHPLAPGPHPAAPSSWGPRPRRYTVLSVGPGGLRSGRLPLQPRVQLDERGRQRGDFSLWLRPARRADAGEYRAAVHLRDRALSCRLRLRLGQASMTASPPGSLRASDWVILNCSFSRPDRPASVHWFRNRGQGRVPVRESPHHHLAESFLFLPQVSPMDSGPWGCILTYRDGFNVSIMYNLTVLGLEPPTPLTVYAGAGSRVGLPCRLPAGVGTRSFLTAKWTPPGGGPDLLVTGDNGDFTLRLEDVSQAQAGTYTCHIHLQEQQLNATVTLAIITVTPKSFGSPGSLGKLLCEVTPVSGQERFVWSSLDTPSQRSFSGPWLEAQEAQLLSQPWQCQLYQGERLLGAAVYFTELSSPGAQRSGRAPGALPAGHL
Experimental: (§1) Association and dissociation rates were measured with a ProteOn XPR 36 analyser (Biorad) and the affinity (KD) was calculated.

[6] = molecular target: T1, human LAG-3 coupled to phycoerythrin; assay: blocking assay, flow cytometry: labelled LAG-3 pre-incubated with Fab, then binding to MHC class II on Daudi cells, mean fluorescence intensity
[7] = molecular target: T4, Human LAG-3 coupled to human Fc; assay: SPR (ProteOn XPR 36), human LAG-3-Fc immobilised, A6 Fab as analyte
Experimental: as §1

[8] = molecular target: T5, human LAG-3 (Bio-Layer Interferometry; construct not stated) (human, UniProt P18627 23-450, limits assumed); assay: Bio-Layer Interferometry
T5 sequence (looked up): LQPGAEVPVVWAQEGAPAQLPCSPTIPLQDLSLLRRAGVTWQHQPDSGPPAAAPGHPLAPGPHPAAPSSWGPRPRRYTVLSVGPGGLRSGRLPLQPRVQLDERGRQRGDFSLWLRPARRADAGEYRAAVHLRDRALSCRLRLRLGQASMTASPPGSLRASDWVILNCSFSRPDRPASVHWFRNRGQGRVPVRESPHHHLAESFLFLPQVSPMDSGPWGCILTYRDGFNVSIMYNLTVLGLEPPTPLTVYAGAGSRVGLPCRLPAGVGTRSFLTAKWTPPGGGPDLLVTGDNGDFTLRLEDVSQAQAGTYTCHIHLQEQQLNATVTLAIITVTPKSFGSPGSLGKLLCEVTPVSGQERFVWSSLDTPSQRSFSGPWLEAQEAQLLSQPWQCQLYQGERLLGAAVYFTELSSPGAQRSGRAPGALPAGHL

[9] = molecular target: T2, mouse LAG-3 coupled to human Fc; assay: ELISA, plate coated with mouse LAG-3 coupled to human Fc, Fab, absorbance 450-670 nm

B1: anti-LAG-3 antibody clone G8 Fab (Fab, V domains shown)
VH: QVQLVQSGGGVVQPGRSLRLSCAASGFTFSSYAMHWVRQAPGKGLEWVAVISYDGSNKYYADSVKGRFTISRDNSKNTLYLQMNSLRAEDTAVYYCARDPDAANWGFLLYYGMDVWGQGTTVTVSS
VL: EIVLTQSPGTLSLSPGERATLSCTTSQSVSSTSLDWYQQKPGQAPRLLIYGASSRATGIPDRFSGSGSGTDFTLTISRLEPEDFAVYYCQQYGSSLLTFGGGTKVEIK
[1]
  IC50: 12 nM
[2]
  binding result: no binding

B2: anti-LAG-3 antibody clone C2 Fab (Fab, V domains shown)
VH: QVQLVQSGGGVVQPGRSLRLSCAASGFTFSSYAMHWVRQAPGKGLEWVAVISYDGSNKYYADSVKGRFTISRDNSKNTLYLQMNSLRAEDTAVYYCARDPDAANWGFLLYYGMDVWGQGTTVTVSS
VL: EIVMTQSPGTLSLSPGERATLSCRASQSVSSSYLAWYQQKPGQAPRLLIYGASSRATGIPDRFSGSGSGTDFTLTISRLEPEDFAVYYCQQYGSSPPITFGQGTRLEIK
[1]
  IC50: 33 nM
[2]
  binding result: no binding

B3: anti-LAG-3 antibody clone G8 in IgG4 format (antibody, V domains shown)
VH: QVQLVQSGGGVVQPGRSLRLSCAASGFTFSSYAMHWVRQAPGKGLEWVAVISYDGSNKYYADSVKGRFTISRDNSKNTLYLQMNSLRAEDTAVYYCARDPDAANWGFLLYYGMDVWGQGTTVTVSS
VL: EIVLTQSPGTLSLSPGERATLSCTTSQSVSSTSLDWYQQKPGQAPRLLIYGASSRATGIPDRFSGSGSGTDFTLTISRLEPEDFAVYYCQQYGSSLLTFGGGTKVEIK
notes: also called G8 IgG4
[3]
  EC50 (read off the curve): ~0.4 nM

B4: anti-LAG-3 antibody clone A6 in IgG1 format (antibody, V domains shown)
VH: EVQLVQSGAEVKKPGSSVKVSCKASGYTFTSYYMHWVRQAPGQGLEWMGIINPSGGSTSYAQKFQGRVTMTRDTSTSTVYMELSSLRSEDTAVYYCAMPFGDFDYWGQGTLVTVSS
VL: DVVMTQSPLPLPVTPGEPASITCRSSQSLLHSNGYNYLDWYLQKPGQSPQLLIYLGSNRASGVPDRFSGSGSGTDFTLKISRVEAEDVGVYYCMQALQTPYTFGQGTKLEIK
notes: also called A6 IgG1
[3]
  EC50 (read off the curve): ~0.7 nM

B5: anti-LAG-3 antibody clone A6 in IgG4 format (antibody, V domains shown)
VH: EVQLVQSGAEVKKPGSSVKVSCKASGYTFTSYYMHWVRQAPGQGLEWMGIINPSGGSTSYAQKFQGRVTMTRDTSTSTVYMELSSLRSEDTAVYYCAMPFGDFDYWGQGTLVTVSS
VL: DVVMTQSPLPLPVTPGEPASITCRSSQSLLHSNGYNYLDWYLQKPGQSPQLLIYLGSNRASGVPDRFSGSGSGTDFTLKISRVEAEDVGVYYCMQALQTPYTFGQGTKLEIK
notes: also called A6 IgG4
[3]
  EC50 (read off the curve): ~0.6 nM

B6: anti-LAG-3 antibody clone A6 Fab (Fab, V domains shown)
VH: EVQLVQSGAEVKKPGSSVKVSCKASGYTFTSYYMHWVRQAPGQGLEWMGIINPSGGSTSYAQKFQGRVTMTRDTSTSTVYMELSSLRSEDTAVYYCAMPFGDFDYWGQGTLVTVSS
VL: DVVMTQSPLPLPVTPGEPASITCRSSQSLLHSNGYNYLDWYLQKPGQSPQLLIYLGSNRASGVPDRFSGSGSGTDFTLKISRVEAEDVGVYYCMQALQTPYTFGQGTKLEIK
notes: Fab format, from a human phage display library; the constant domains of the Fab are not
[4]
  IC50: 62.2 nM
[1]
  IC50: 111 nM
[5]
  Kd: 2.18 nM
  koff: 0.000456 s⁻¹
  kon: 209000 M⁻¹ s⁻¹
[6]
  IC50 (read off the curve): ~60 nM
[7]
  Kd: 2.2 nM

B7: anti-LAG-3 antibody clone A6 (format not stated) (antibody, V domains shown)
VH: EVQLVQSGAEVKKPGSSVKVSCKASGYTFTSYYMHWVRQAPGQGLEWMGIINPSGGSTSYAQKFQGRVTMTRDTSTSTVYMELSSLRSEDTAVYYCAMPFGDFDYWGQGTLVTVSS
VL: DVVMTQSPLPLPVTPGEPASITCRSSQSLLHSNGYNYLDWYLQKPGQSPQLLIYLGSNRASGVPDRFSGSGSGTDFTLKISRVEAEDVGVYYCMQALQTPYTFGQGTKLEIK
notes: also called antibody A6
[8]
  Kd: 1.25 nM

B8: anti-LAG-3 antibody clone 1G11 Fab (Fab, V domains shown)
VH: QLQLQESGGDVVQPGRSLRLSCAASGFTFSSYGMHWVRQAPGKGLEWVAVISYDGSNKYYADSVKGRFTISRDNSKNTLYLQMNSLRAEDTAVYYCARLPGWGAYAFDIWGQGTMVTVSS
VL: EIVLTQSPGTLSLSPGERATLSCRASQSVSSSFLAWYQQKPGQAPRLLIYGASSRATGIPDRFSGSGSGTDFTLTISRLEPEDFAVYYCQQYGPSITFGGGTKVEIK
[4]
  IC50: 378 nM
[9]
  binding result: binds
